Laboratory results from paper PMC4694755 (Molecular Biology of the Cell, 2016).

Target: Mouse importin β (mouse, UniProt P70168 1-876)
Assay: SPR

Sequence of Mouse importin β (P70168 whole entry): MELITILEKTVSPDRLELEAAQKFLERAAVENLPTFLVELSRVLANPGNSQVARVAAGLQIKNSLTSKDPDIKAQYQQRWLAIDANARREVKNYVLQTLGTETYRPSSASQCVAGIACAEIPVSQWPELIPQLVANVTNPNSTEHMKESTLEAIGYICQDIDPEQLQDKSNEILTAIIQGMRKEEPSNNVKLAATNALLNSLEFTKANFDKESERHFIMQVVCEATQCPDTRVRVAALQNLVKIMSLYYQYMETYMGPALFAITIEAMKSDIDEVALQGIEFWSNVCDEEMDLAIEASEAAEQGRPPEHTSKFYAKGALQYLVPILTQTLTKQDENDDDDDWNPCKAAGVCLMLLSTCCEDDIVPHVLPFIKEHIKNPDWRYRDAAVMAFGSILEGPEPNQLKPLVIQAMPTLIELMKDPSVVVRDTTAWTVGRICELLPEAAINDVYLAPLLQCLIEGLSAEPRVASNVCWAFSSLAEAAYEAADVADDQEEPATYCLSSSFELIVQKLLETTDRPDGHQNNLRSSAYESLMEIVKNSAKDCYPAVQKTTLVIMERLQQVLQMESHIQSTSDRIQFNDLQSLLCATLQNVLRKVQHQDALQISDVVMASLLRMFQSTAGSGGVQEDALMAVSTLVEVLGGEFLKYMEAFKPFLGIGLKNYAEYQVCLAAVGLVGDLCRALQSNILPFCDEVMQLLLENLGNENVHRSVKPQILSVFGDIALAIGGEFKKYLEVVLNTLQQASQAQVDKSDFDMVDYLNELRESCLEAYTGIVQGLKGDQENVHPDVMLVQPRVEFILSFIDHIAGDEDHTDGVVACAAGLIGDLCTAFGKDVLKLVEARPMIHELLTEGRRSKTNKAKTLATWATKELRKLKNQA

koff: 0.00132 s⁻¹
kon: 99400 M⁻¹ s⁻¹
B1: importin β–binding domain of rat importin α (IBB, amino acids 1–66) (domain or fragment)
chain: not shown
